Data taken from patent US9309278.

Molecular target: T1, Ac-FQPKKS(Ac)G-NH2 (alkylated acetyl-lysine analog of peptide 1)
T1 chain: FQPKXG

B1: human sirtuin 2 (SIRT2) enzyme (protein)
chain: MAEPDPSHPLETQAGKVQEAQDSDSDSEGGAAGGEADMDFLRNLFSQTLSLGSQKERLLDELTLEGVARYMQSERCRRVICLVGAGISTSAGIPDFRSPSTGLYDNLEKYHLPYPEAIFEISYFKKHPEPFFALAKELYPGQFKPTICHYFMRLLKDKGLLLRCYTQNIDTLERIAGLEQEDLVEAHGTFYTSHCVSASCRHEYPLSWMKEKIFSEVTPKCEDCQSLVKPDIVFFGESLPARFFSCMQSDFLKVDLLLVMGTSLQVQPFASLISKAPLSTPRLLINKEKAGQSDPFLGMIMGLGGGMDFDSKKAYRDVAWLGECDQGCLALAELLGWKKELEDLVRREHASIDAQSGAGVPNPSTSASPKKSPPPAKDEARTTEREKPQ
In the case of B1, the deacetylation rate (SIRT2 assay, C18 analytical HPLC) (fold of the rate on the native peptide) is reported as 0.33 and the “enzymatic deacetylation (SIRT2 assay, HPLC peak of the deacetylated product)” value is reported as “the sLys(Ac) residue in the alkylated peptide 1 was susceptible to enzymatic deacetylation, albeit to a lesser degree, compared to its native counterpart”.
